Experiments:
[1] = biological target: T1, recombinant human Aβ42 (rPeptide) (human, UniProt P05067 672-713); test: dot blot
T1 construct: domain: Aβ42; Tested in the monomeric (unaggregated), oligomeric and filamentous states; also called Aβ Olig; Aβ Fil
Experimental: (§1) 45 ng/spot was applied to the nitrocellulose. Total Tau was determined using Tau12. […] Each point represents a minimum of three independent measurements. […] Scale bar is 200 nm. […] Monomeric and dimeric Tau were isolated from the same aggregation reaction. Also included is an electroeluted monomeric sample that was never exposed to AA (−AA). 12 ng/spot was applied to the nitrocellulose.
(§2) For dot blots, samples were spotted directly onto nitrocellulose membranes (44). Both Western and dot blot membranes were blocked with 5% nonfat dry milk in TBS, pH 7.4, and incubated in primary antibodies overnight at 4° C. For dot blots, 0.05% Triton X-100 was added to the TBS solution. The Tau12 (45), TauS (46), Tau7 (47), MOAB-2 (a mouse monoclonal antibody (IgG1) produced in the Binder laboratory what recognizes Aβ40 and −42), and TOC1 mouse monoclonal antibodies were used at 0.0067, 0.01, 0.04, 0.05, and 0.1 μg/ml, respectively. The mouse monoclonal anti-α-synuclein (Chemicon; MAB5320) and rabbit monoclonal anti-β-actin (Cell Signaling Technology; clone 13E5) antibodies were diluted to 1:2000 and 1:1000, respectively. The rabbit polyclonal antibodies R1 (48) and His-probe (Santa Cruz Biotechnology; clone H-15) were used at 0.0075 and 0.5 μg/ml, respectively. […]

[2] = biological target: untagged recombinant full-length human α-synuclein (human, UniProt P37840 1-140); test: dot blot
Experimental: as §1, §2

[3] = biological target: T2, Tau oligomers (hTau40 aggregates <50 nm in length; sucrose gradient Fraction 3) (human, UniProt P10636 1-758); test: immunogold EM, normalised to poly-His tag labeling of the same preparation
T2 construct: Prefibrillar aggregates of recombinant poly-His tagged hTau40 made with arachidonic acid; The number of chains is not defined; also called oligomeric structures; oligomer fraction

[4] = biological target: tau deletion construct Δ221-238 (hTau40), aggregated (human, UniProt P10636 1-758); test: aggregated deletion construct incubated with the antibody
Experimental: (§3) Two overlapping tau deletion constructs (Δ209-228 and Δ221-238) were aggregated and incubated with the TOC1 antibody or with the Tau7 antibody. Both were positive for Tau7 which recognizes the last 11 amino acids of tau, but negative for TOC1.

[5] = biological target: tau deletion construct Δ209-228 (hTau40), aggregated (human, UniProt P10636 1-758); test: as above
Experimental: as §3

[6] = biological target: T3, Tau MTBR construct consisting of residues 244-372 of hTau40 (human, UniProt P10636 561-689); test: dot blot of AA-assembled construct
T3 construct: Expressed in E. coli from pET-17b; Assembled with AA before the dot blot; not shown: poly-His tag C-terminal to residue 372
T3 sequence (P10636 other isoform, or with tags, fused parts or gaps): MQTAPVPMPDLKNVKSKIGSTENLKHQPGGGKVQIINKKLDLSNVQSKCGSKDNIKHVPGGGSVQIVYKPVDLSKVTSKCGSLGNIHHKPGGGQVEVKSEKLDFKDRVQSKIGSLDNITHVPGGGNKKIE

T2 sequence (P10636 other isoform, or with tags, fused parts or gaps limits assumed): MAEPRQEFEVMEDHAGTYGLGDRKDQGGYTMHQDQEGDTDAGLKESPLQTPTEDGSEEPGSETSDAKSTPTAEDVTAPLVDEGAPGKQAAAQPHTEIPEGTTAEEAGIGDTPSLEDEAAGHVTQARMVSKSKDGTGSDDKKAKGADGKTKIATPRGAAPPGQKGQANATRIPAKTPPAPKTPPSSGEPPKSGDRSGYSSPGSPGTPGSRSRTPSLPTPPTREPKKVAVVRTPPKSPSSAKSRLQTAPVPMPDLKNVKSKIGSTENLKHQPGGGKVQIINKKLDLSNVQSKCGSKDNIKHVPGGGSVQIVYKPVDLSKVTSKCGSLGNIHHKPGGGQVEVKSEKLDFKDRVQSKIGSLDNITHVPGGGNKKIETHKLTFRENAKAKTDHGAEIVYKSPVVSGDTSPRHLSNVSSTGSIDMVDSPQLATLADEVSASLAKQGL
Sequence of tau deletion construct Δ209-228 (hTau40), aggregated (P10636 other isoform, or with tags, fused parts or gaps mutant): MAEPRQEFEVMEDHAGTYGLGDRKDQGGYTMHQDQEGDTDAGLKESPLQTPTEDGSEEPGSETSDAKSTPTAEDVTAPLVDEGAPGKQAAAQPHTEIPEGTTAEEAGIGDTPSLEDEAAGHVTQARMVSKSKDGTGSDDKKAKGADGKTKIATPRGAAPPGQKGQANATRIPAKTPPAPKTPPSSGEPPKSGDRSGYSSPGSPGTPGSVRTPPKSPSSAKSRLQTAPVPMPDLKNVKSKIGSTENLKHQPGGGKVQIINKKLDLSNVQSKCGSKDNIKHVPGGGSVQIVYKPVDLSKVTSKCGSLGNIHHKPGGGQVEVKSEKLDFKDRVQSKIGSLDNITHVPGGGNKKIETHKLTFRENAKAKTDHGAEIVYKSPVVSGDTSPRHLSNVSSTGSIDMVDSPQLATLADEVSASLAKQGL
T1 sequence (P05067 672-713 limits assumed): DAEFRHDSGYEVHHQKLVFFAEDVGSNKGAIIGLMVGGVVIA
Sequence of tau deletion construct Δ221-238 (hTau40), aggregated (P10636 other isoform, or with tags, fused parts or gaps mutant): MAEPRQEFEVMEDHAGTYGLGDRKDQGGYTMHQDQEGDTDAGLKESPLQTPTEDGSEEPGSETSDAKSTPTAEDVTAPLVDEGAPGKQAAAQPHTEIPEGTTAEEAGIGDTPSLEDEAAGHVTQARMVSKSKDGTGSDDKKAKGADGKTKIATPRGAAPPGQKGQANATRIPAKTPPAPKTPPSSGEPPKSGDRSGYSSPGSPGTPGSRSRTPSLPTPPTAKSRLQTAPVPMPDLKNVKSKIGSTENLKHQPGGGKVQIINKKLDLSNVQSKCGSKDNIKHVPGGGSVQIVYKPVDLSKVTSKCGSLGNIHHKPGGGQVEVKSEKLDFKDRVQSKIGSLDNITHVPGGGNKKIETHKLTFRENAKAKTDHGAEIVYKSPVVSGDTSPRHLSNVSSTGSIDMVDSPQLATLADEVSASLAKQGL

B1: Tau oligomeric complex-1 (TOC1) monoclonal antibody (antibody)
heavy: QVQLQQPGAELVMPGASVKLSCKASGYTFTSYWMHWVKQRPGQGLEWIGEIDPSDSYTNYNQKFKGKSTLTVDKSSSTAYMQLSSLTSEDSAVYYCARSGDGSSPWYFDVWGTGTTVTVSSESQSFPNVFPLVSCESPLSDKNLVAMGCLARDFLPSTISFTWNYQNNTEVIQGIRTFPTLRTGGKYLATSQVLLSPKSILEGSDEYLVCKIHYGGKNKDLHVPIPAVAEMNPNVNVFVPPRDGFSGPAPRKSKLICEATNFTPKPITVSWLKDGKLVESGFTTDPVTIENKGSTPQTYKVISTLTISEIDWLNLNVYTCRVDHRGLTFLKNVSSTCAASPSTDILTFTIPPSFADIFLSKSANLTCLVSNLATYETLNISWASQSGEPLETKIKIMESHPNGTFSAKGVASVCVEDWNNRKEFVCTVTHRDLPSPQKKFISKPNEVHKHPPAVYLLPPAREQLNLRESATVTCLVKGFSPADISVQWLQRGQLLPQEKYVTSAPMPEPGAPGFYFTHSILTVTEEEWNSGETYTCVVGHEALPHLVTERTVDKSTGKPTLYNVSLIMSDTGGTCY
light: DVLMTQTPLSLPVSLGDQASISCRSSQSIVHSNGNTYLEWYLQKPGQSPKLLIYKVSNRFSGVPDRFSGSGSGTDFTLKISRVEAEDLGVYYCFQGSHVPRTFGGGTKLEIKRADAAPTVSIFPPSSEQLTSGGASVVCFLNNFYPKDINVKWKIDGSERQNGVLNSWTDQDSKDSTYSMSSTLTLTKDEYERHNSYTCEATHKTSTSPIVKSFNRNEC
notes: Mouse monoclonal of the IgM isotype, purified from hybridoma culture; Raised in Tau null mice against electroeluted B4M cross-linked Tau dimers and boosted with cross-linked oligomers; The light chain protein print marks the leader with a dash; For the heavy chain only the DNA print does (57 nt)
Does B1 bind [1]?
Result: no binding

Does B1 bind [2]?
Result: no binding

What about the “fold preference of immunogold labeling, oligomers over filaments (TOC1:His tag labeling)” value [3] of the same binder?
The value was > 7 fold.

Does B1 bind [4]?
Result: no binding

Does B1 bind [5]?
Result: no binding

Does B1 bind [6]?
Result: no binding

Source: US20120301473A1 (NORTHWESTERN UNIVERSITY, published 2012)
